Measurements reported in article PMC4753449, “Conformational plasticity of RepB, the replication initiator protein of promiscuous streptococcal plasmid pMV158” (Scientific Reports, 2016).

B1: RepB OD (oligomerisation domain, residues 127 to 210) (domain or fragment, UniProt P13921 127-210, looked up)
chain: DIDRYVTLDVEEKTELFNVVVSLIRAYTLQNIFDLYDFIDENGETYGLTINLVNEVIAGKTGFMKLLFDGAYQRSKRGTKNEER
notes: RepB of plasmid pMV158 (Streptococcus agalactiae), oligomerisation domain, residues 127 to 210; theoretical mass of the hexamer 58,300 Da; also called OD-only construct; OD hexamer; source: Escherichia coli M15, purified (Ni-NTA agarose), His-tag removed with TAGZyme; not shown: His6, N-terminal, cleaved
B2: RepB, rolling-circle replication initiator protein of plasmid pMV158 (hexamer) (natural protein, UniProt P13921 1-210, looked up)
chain: MAKEKARYFTFLLYPESIPSDWELKLETLGVPMAISPLHDKDKSSIKGQKYKKAHYHVLYIAKNPVTADSVRKKIKLLLGEKSLAMVQVVLNVENMYLYLTHESKDAIAKKKHVYDKADIKLINNFDIDRYVTLDVEEKTELFNVVVSLIRAYTLQNIFDLYDFIDENGETYGLTINLVNEVIAGKTGFMKLLFDGAYQRSKRGTKNEER
notes: RepB, replication initiator protein encoded by the promiscuous plasmid pMV158, originally isolated from Streptococcus agalactiae; 24 kDa polypeptide; OBD (N-terminal) and OD (C-terminal) domains; the OD construct ends at residue 210; The final model of 4U87 comprises residues 3-204 of three protomers in the asymmetric unit; also called RepB6; RepB hexamer

Experiments:
[1] = biological target: the molecule itself; assay: AUC; sedimentation equilibrium, 20 °C, 20 mM NaH2PO4 pH 7.0, 150 mM NaCl; OBD 10-60 μM at 22,000 rpm, OD 10-100 μM at 13,000 rpm; single-species model
[2] = biological target: the molecule itself; assay: SAXS; free RepB in solution at 20, 40 and 83 μM RepB6 (12.1, 5.8 and 2.9 mg/mL); 10 mM TRIS pH 8.5, 5 mM EDTA, 1.0 M KCl

| Protein | stoichiometry N [1] | stoichiometry N [2] |
| --- | --- | --- |
| B1 | 6 |  |
| B2 |  | 6 |
